The IC50 is the point on the concentration scale where inhibition reaches its midpoint. As a reminder, the Kd is the equilibrium constant for the complex coming apart. One may read the koff as a measure of how fast the partners let go of each other. As a reminder, the kon is a measure of how fast the partners come together.

In experiment [1] the target is T1, full length human PD-L1 (amino acids 1 to 290 of NP_054862.1) on transfected cells (human, UniProt Q9NZQ7 19-290).
T1 construct: also called HEK293/hPD-L1; Raji/hPD-L1
T1 sequence (Q9NZQ7 19-290 limits assumed): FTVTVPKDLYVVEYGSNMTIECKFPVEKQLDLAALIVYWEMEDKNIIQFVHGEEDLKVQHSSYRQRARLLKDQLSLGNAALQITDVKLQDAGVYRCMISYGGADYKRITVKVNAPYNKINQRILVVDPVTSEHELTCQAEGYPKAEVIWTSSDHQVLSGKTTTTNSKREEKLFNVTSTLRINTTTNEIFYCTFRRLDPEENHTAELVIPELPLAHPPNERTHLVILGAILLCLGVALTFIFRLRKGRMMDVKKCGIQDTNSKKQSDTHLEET
The experiment in a line: FACS, 100 nM antibody. Here is the method:
(§1) The binding of anti-PD-L1 antibodies to a human embryonic kidney cell line (HEK293; ATCC, #CRL-1573) stably transfected with full length human PD-L1 (amino acids 1 to 290 of accession number NP_054862.1) (HEK293/hPD-L1) was determined by FACS.
(§2) For the assay, adherent cells were detached using enzyme-free dissociation buffer and blocked with complete medium. Cells were centrifuged and resuspended at a concentration of 2.8×10\hat{ }6 cells/mL in cold PBS containing 2% FBS. […] Cells were washed with D-PBS containing 2% FBS to remove unbound secondary detection reagents and fluorescence measurements were acquired using a HyperCyte (IntelliCyt, Inc.) flow cytometer. Data was analyzed using HyperCyte software.
On the technique in general: A flow cytometer gives signals particle by particle.

Experiment [2] deals with T1, full length human PD-L1 (amino acids 1 …). The experiment in a line: cell-based or functional assay.
Experiment [3] has the same target. The experiment in a line: FACS, 100 nM antibody, HEK293/hPD-L1 cells. Here is the method:
as §1, §2

Experiment [4] deals with T2, recombinant human PD-L1 (amino acids 19-239 of NP_054862.1) expressed with a C-terminal mouse IgG2a Fc tag (human).
T2 construct: called dimeric; also called hPD-L1-mFc
T2 sequence (chain, as listed by the source limits assumed): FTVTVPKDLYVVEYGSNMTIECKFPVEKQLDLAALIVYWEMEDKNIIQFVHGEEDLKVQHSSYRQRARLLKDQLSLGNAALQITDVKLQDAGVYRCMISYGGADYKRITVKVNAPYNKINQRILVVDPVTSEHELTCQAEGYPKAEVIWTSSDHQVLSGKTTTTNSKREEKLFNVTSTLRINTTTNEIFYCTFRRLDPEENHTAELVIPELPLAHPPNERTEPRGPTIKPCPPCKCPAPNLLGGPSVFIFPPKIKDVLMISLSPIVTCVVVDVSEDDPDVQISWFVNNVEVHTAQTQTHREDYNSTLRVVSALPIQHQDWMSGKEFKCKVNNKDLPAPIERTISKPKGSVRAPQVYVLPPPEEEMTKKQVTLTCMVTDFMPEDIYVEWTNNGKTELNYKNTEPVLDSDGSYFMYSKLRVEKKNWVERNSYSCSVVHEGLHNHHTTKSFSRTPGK
Kind of experiment: competition ELISA: 0.5 nM hPD-L1-mFc binding to coated hPD-1-hFc. Here is the method:
(§3) The ability of monoclonal anti-PD-L1 antibodies to block human PD-L1 from binding to its binding partners, the human PD-1 and the human B7-1 receptors, was measured using two competition sandwich ELISA formats.
(§4) A dimeric human PD-1 protein comprised of a portion of the extracellular domain (amino acids 25-170 of accession number NP_005009.2 with a C93S change) that was expressed with a C-terminal hFc tag (hPD-1-hFc; SEQ ID: 350) and a dimeric human B7-1 protein comprised of a portion of the extracellular domain expressed with C-terminal hFc tag and hexahistidine tags (hB7-1-hFc-6His; R&D Systems, #140-B1) were separately coated at 2 μg/mL on a 96-well microtiter plate in a PBS buffer overnight at 4° C. […] These antibody-protein complexes were then incubated for 1 hour at room temperature (RT). […] The complexes were allowed to bind to the coated plates for 1 hour at RT. […] Samples were developed with a TMB solution (BD Biosciences, #51-2606KC and #51-2607KC) to produce a colorimetric reaction and neutralized with 1M sulfuric acid before measuring absorbance at 450 nm on a Victor X5 plate reader. Data analysis used a sigmoidal dose-response model within Prism™ software.
A general note: In an ELISA, binding on a coated surface is turned into a signal by an enzyme label.

Experiment [5] addresses T2, recombinant human PD-L1 (amino acids …). Kind of experiment: competition ELISA: 8 nM hPD-L1-mFc binding to coated hB7-1-hFc-6His. The procedure: as §3, §4
Experiment [6] shares this target. Kind of experiment: BLI (Octet Red96): 100 nM hPD-L1-mFc + 500 nM mAb on captured hPD-1-hFc, 25C. The procedure: Inhibition studies for anti-PD-L1 monoclonal antibodies expressed with mouse Fc were performed on an Octet Red96 instrument. […] Approximately 0.8 nm to 1.2 nm of recombinant human PD-1 expressed with a C-terminal human IgG1 Fc tag (hPD-1-hFc; SEQ ID: 350) was captured using anti-human IgG Fc capture biosensors. […] The entire experiment was performed at 25° C. in Octet HBST buffer (0.01 M HEPES pH7.4, 0.15M NaCl, 3 mM EDTA, 0.05% v/v Surfactant P20, 0.1 mg/mL BSA) with a plate shaking at a speed of 1000 rpm. The biosensors were washed in Octet HBST buffer in between each step of the experiment. The real-time binding response was monitored during the course of the experiment and the binding response at the end of every step was recorded.

In experiment [7] the target is T3, recombinant cynomolgus monkey PD-L1 expressed with a C-terminal mouse IgG2a Fc tag (cynomolgus monkey).
T3 construct: also called MfPD-L1-mFc; monkey PD-L1-mFc
T3 sequence (chain, as listed by the source limits assumed): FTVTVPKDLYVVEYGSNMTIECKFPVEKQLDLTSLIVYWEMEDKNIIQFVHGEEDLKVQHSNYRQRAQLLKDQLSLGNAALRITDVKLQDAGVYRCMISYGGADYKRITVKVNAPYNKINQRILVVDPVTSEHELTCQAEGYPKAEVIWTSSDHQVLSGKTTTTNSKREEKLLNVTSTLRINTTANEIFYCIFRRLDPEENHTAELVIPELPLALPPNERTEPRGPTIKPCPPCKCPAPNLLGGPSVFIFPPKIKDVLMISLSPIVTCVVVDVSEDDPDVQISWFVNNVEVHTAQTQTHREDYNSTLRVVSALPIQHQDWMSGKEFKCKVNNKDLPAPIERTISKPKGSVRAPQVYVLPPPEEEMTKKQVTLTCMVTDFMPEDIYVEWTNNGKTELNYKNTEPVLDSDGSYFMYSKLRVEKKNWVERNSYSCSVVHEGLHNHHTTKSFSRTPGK
The experiment in a line: SPR (Biacore), mAb captured, 37C.

The target in experiment [8] is T4, recombinant human PD-L1 (amino acids 19-239 of NP_054862.1) with a C-terminal myc-myc-hexahistidine tag (human).
T4 construct: also called hPD-L1-MMH; hPD-L1-MMH Monomer
T4 sequence (chain, as listed by the source limits assumed): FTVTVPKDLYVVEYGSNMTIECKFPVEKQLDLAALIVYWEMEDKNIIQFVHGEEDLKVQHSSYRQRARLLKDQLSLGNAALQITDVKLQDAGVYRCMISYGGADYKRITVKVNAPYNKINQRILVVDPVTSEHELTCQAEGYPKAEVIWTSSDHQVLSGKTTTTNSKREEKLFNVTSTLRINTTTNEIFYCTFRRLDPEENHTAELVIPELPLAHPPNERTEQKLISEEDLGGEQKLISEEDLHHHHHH
The experiment in a line: SPR (Biacore), mAb captured, 37C. In general terms: SPR reads the build-up and loss of mass on a sensor chip optically.

Experiment [9] has as its target T5, Human PD-L1 Dimer (human, UniProt Q9NZQ7 19-239).
T5 construct: also called hPD-L1 dimer; hPD-L1-hFc
Kind of experiment: SPR (Biacore), mAb captured, 37C.

The target in experiment [10] is T6, recombinant cynomolgus monkey PD-L1 with a C-terminal myc-myc-hexahistidine tag (cynomolgus monkey (Macaca fascicularis)).
T6 construct: also called MfPD-L1-MMH; MfPD-L1-MMH Monomer
T6 sequence (chain, as listed by the source limits assumed): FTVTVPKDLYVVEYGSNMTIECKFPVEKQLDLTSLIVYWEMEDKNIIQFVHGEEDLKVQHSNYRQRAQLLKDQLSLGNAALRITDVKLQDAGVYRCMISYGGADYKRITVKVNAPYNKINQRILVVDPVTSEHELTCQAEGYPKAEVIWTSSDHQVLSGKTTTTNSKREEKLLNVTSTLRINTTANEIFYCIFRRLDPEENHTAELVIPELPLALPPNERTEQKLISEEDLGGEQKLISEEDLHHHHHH
Kind of experiment: SPR (Biacore), mAb captured, 37C.

The target in experiment [11] is T5, Human PD-L1 Dimer. The experiment in a line: SPR (Biacore), mAb captured, 25C.
Experiment [12] addresses T6, recombinant cynomolgus monkey PD-L1 …. The experiment in a line: SPR (Biacore), mAb captured, 25C.
The target in experiment [13] is T7, recombinant cynomolgus monkey PD-L1 with a C-terminal mouse IgG2a Fc tag (cynomolgus monkey (Macaca fascicularis)).
T7 construct: also called MfPD-L1-mFc; monkey PD-L1-mFc
The experiment in a line: SPR (Biacore), mAb captured, 25C.

T5 sequence (Q9NZQ7 19-239): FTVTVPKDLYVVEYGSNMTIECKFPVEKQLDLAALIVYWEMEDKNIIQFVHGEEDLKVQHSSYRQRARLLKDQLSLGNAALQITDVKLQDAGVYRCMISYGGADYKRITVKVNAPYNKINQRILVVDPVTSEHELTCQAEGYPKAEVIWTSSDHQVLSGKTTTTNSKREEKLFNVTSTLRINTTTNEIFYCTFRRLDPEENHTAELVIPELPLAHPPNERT

B1: H2aM8312N (antibody, V domains shown)
VH: QVHLVQSGAEVKKPGASVKVSCKASGYTFTGYYIHWVRQAPGHGLEWMGWLNPNTGTTKYIQNFQGRVTMTRDTSSSTAYMELTRLRSDDTAVYYCARDEDWNYGSWFDTWGQGTLVTVSS
VL: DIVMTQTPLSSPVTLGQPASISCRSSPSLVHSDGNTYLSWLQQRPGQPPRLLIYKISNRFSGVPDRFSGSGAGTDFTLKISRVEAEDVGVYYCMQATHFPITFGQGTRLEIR
notes: human variable regions, mouse IgG2 Fc (H2aM prefix); also called H2M8312N
In the case of B1, in [1], the “Ratio of HEK293/hPD-L1 to HEK293 parental cells” value (“Ratio of HEK293/hPD-L1” below) worked out at 115. Besides, the “Emax mean [%] @ 100 nM” value in [2] stood at 75.6%. Further, in experiment [3], the MFI worked out at 158000 MFI. The results for the “% maximum blocking” value in [4] and in experiment [5] were 23% and 98%, respectively. In addition, the IC50 in experiment [5] was below 4 nM. The “% Blocking” value in experiment [6] was -68%.

B2: H1H8323N (antibody, V domains shown)
VH: QVQLVQSGAEVKMPGSSVRVSCKASGGIFSSSTISWVRQAPGQGLEWMGEIIPVFGTVNYAQKFQDRVIFTADESTTTAYMELSSLKSGDTAVYFCARNWGLGSFYIWGQGTMVTVSS
VL: EIVLTQSPGTLSLSPGERATLSCRASQSFNFNYLAWYQQKPGQAPRLLIYGASSRATGIPDRFSGSGSGTDFTLTINRLEPEDFGVFYCQQYESAPWTFGQGTKVEIK
notes: human IgG1 Fc form (H1H prefix) of numerical identifier 8323
Take B2: in experiment [7], the Kd amounted to 0.0451 nM, the koff came out at 0.000135 s⁻¹, the kon was found to be 2.99e+06 M⁻¹ s⁻¹ and the t1/2 came to 86 min.

B3: H2aM8314N (antibody, V domains shown)
VH: EVQLVESGGGVVRPGGSLRLSCAASGFTFDDYGMTWVRQAPGRGLEWVSGIHWHGKRTGYADSVKGRFTISRDNAKKSLYLQMNSLKGEDTALYHCVRGGMSTGDWFDPWGQGTLVIVSS
VL: DIQMTQSPSSLSASLGDRVTITCRASQSINSYLNWYQQKPGKAPKLLIYVASSLQSGVPSRFSGSGSGTEFTLTISNLQPEDFATYYCQQSYSTPPITFGQGTRLEIK
notes: human variable regions, mouse IgG2 Fc (H2aM prefix); also called H2M8314N
B3: the “Ratio of HEK293/hPD-L1” value in experiment [1] is 95. For the same molecule, in [2], the “Concentration [M] of Antibody at 125% activation” value came out at 1.44e-11 M and the “Emax mean [%] @ 100 nM” value worked out at 235%. The MFI in [3] came to 195000 MFI. In experiment [4], the “% maximum blocking” value was 93% and the IC50 was below 0.25 nM. Also, in experiment [5], the “% maximum blocking” value came out at 97% and the IC50 was below 4 nM. Besides, the “% Blocking” value in experiment [6] came to 94%.

B4: H1H8314N (antibody, V domains shown)
VH: EVQLVESGGGVVRPGGSLRLSCAASGFTFDDYGMTWVRQAPGRGLEWVSGIHWHGKRTGYADSVKGRFTISRDNAKKSLYLQMNSLKGEDTALYHCVRGGMSTGDWFDPWGQGTLVIVSS
VL: DIQMTQSPSSLSASLGDRVTITCRASQSINSYLNWYQQKPGKAPKLLIYVASSLQSGVPSRFSGSGSGTEFTLTISNLQPEDFATYYCQQSYSTPPITFGQGTRLEIK
notes: human IgG1 Fc form (H1H prefix) of numerical identifier 8314
Turning to B4, in experiment [2], the “Concentration [M] of Antibody at 125% activation” value was 6.57e-11 M and the “Emax mean [%] @ 100 nM” value was 148%. Besides, in experiment [7], the Kd amounted to 0.0333 nM, the koff was 9.6e-05 s⁻¹, the kon was determined as 2.89e+06 M⁻¹ s⁻¹ and the t1/2 came to 120 min.

B5: H2aM8317N (antibody, V domains shown)
VH: EVQLVESGGGLVQPGGSLRLSCAASGFTVGSNYMNWVRQAPGKGLEWVSVIYSGGSTYYADSVKGRFTISRLTSKNTLYLQMSSLRPEDTAVYYCARGIRGLDVWGQGTTVTVSS
VL: DIQMTQSPSSLSASVGDRVTITCRASQTINIYLNWYQQKPGRAPRLLIYAASSLQSGVPSRFSGSGSGTDFTLTISSLQPEDFATYYCHQSYSTPPITFGQGTRLEIK
notes: human variable regions, mouse IgG2 Fc (H2aM prefix); also called H2M8317N
With B5, in experiment [1], the “Ratio of HEK293/hPD-L1” value was 53. Besides, in experiment [2], the “Emax mean [%] @ 100 nM” value worked out at 109%. In addition, in experiment [3], the MFI worked out at 67600 MFI. The “% maximum blocking” value was -11% in experiment [4] and -166% in experiment [5]. Further, the “% Blocking” value in [6] is -87%.

B6: H2aM8309N (antibody, V domains shown)
VH: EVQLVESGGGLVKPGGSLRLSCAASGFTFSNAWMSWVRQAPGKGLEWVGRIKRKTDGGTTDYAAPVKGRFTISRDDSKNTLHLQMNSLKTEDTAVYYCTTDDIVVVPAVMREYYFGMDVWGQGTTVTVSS
VL: DIQMTQSPSSLSASVGDRVTITCRTSQGIRNDLGWYQQKPGKAPKRLIYAASSLQSGVPSRFSGSGSGTEFTLTISSLQPEDFATYYCLQHNNYPYTFGQGTKLEIK
notes: human variable regions, mouse IgG2 Fc (H2aM prefix); also called H2M8309N
In the case of B6, in [1], the “Ratio of HEK293/hPD-L1” value stood at 166. In experiment [2], the “Concentration [M] of Antibody at 125% activation” value came to 3.09e-10 M and the “Emax mean [%] @ 100 nM” value was found to be 181%. The same molecule returned an MFI in experiment [3] of 193000 MFI. Also, in experiment [4], the “% maximum blocking” value turned out to be 98% and the IC50 is below 0.25 nM. In experiment [5], the “% maximum blocking” value came to 98% and the IC50 was below 4 nM. Moreover, in [6], the “% Blocking” value was 94%.

B7: H1H9396P2 (antibody, human IgG1, V domains shown)
VH: QVQLVQSGAEVEKPGASVKVSCKASGYIFTHYGISWVRQAPGQGLEWVGWISPYNGYTDYAQKLQGRVTLTTDTSTTTAYMELRNLRSDDTAMYYCSRGRGPYWSFDLWGRGTLVTVSS
VL: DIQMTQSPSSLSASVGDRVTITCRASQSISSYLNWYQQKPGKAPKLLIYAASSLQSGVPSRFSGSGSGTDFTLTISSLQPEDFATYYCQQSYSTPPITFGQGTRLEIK
B7: the Kd in experiment [8] was determined as 33 nM; in the experiment with Human PD-L1 Dimer [9], 0.237 nM; in experiment [10] it was 30.5 nM; with Human PD-L1 Dimer [11], 0.245 nM; in experiment [12], 12.2 nM; in experiment [13], 0.225 nM. The koff in experiment [8] worked out at 0.0113 s⁻¹; with Human PD-L1 Dimer [9], 0.000258 s⁻¹; in experiment [10] it was 0.012 s⁻¹; with Human PD-L1 Dimer [11], 0.00019 s⁻¹; in experiment [12] it was 0.00252 s⁻¹; in experiment [13], 0.000188 s⁻¹. In addition, the kon in experiment [8] came to 344000 M⁻¹ s⁻¹; with Human PD-L1 Dimer [9] it was 1.09e+06 M⁻¹ s⁻¹; in [10] it was 394000 M⁻¹ s⁻¹; with Human PD-L1 Dimer [11], 776000 M⁻¹ s⁻¹; in experiment [12], 206000 M⁻¹ s⁻¹; in [13] it was 837000 M⁻¹ s⁻¹. The t1/2 is 1 min in experiment [8]; 45 min with Human PD-L1 Dimer [9]; 1 min in experiment [10]; 61 min with Human PD-L1 Dimer [11]; 4.6 min in [12]; 61 min in experiment [13].

B8: H2aM8310N (antibody, V domains shown)
VH: QVQLVQSGAEVKKPGASVQVSCKASGYSFTGYYIHWVRQAPGQGLEWMGWINPNSGTKKYAHKFQGRVTMTRDTSIDTAYMILSSLISDDTAVYYCARDEDWNFGSWFDSWGQGTLVTVSS
VL: DIVMTQTPLSSPVTLGQPASISCRSSQTLVHGDGNTYLSWIQQRPGQPPRLLIYKVSNQFSGVPDRFSGSGAGTDFTLKISRVEAEDVGLYFCMQATHFPITFGQGTRLEIK
notes: human variable regions, mouse IgG2 Fc (H2aM prefix); also called H2M8310N
As for B8, the “Ratio of HEK293/hPD-L1” value in experiment [1] was determined as 11. For the same molecule, the “Emax mean [%] @ 100 nM” value in experiment [2] amounted to 113%. Further, the MFI in experiment [3] was 14900 MFI. In [4], the “% maximum blocking” value stood at 76% and the IC50 was found to be 0.39 nM. For the same molecule, in experiment [5], the “% maximum blocking” value was found to be 98% and the IC50 was below 4 nM. Also, the “% Blocking” value in [6] was 58%.
